Test [1] has as its target mChe-INPP5E (UniProt Q9NRR6). Description: VIP assay (fluorescence intensity of mChe-INPP5E on GST-anti-GFP Nb beads). As to conditions: lysates of HEK293T cells coexpressing both constructs; three independent experiments; parent: 100; read off a plot.
The target of test [2] is mChe-INPP5E (UniProt Q9NRR6). The experiment in a line: immunoblotting of anti-GFP Nb precipitates (band intensity of mChe-INPP5E). As to conditions: lysates of HEK293T cells coexpressing both constructs; three independent experiments; parent: 100; read off a plot.
Sequence of mChe-INPP5E (Q9NRR6 whole entry): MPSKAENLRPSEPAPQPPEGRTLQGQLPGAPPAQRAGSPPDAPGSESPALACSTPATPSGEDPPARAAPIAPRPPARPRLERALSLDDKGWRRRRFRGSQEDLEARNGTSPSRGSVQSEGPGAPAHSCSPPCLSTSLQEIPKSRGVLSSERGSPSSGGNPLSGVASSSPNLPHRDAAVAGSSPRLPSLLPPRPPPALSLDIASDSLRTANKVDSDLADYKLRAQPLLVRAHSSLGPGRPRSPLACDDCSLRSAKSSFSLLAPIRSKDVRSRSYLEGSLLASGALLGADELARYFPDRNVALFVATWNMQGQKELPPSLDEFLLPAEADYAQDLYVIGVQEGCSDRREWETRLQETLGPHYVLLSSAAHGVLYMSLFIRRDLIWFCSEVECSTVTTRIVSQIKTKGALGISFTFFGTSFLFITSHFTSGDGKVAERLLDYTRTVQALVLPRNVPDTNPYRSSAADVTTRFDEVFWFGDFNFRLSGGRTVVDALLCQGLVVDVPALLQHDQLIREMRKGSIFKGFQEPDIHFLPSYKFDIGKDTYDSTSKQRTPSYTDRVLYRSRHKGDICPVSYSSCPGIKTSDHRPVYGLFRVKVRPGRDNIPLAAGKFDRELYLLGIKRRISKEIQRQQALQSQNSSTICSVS

Sequence of ARL13B(WT)-EGFP, Q3SXY8 AAEA (RVEP mutated to AAEA) (Q3SXY8 other isoform, or with tags, fused parts or gaps AAEA (RVEP mutated to AAEA)): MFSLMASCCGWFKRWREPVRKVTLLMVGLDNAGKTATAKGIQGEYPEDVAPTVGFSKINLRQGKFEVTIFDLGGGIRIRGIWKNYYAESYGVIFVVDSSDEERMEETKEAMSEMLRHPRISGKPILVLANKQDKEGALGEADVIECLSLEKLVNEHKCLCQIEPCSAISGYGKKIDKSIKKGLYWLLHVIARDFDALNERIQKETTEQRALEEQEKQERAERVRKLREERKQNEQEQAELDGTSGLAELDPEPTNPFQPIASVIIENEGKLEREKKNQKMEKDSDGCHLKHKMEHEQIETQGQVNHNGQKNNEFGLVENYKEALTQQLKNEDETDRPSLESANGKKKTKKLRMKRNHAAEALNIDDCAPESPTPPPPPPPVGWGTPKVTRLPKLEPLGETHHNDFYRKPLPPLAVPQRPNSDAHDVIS

As to “ARL13B(WT)-EGFP, Q3SXY8 AAEA (RVEP mutated to AAEA)”, the percent of parent (% of ARL13B(WT)-EGFP) was found to be 100 in test [1] and 110 in test [2].

(Values after article PMC8496693.)
